Five molecules from patent US20100004182A1 (MARUHA, published 2010) can be followed below.

Test [1] addresses xanthine oxidase (XO) of cow's milk (from Wako Pure Chemical) (cow, UniProt P80457 2-1332). Put plainly: cell-based or functional assay.
The target of test [2] is xanthine oxidase (XO) from butter milk (from Wako Pure Chemical) (UniProt P80457 2-1332). Description: cell-based or functional assay.
Chain of xanthine oxidase (XO) from butter milk (from Wako Pure Chemical) (P80457 2-1332 limits assumed): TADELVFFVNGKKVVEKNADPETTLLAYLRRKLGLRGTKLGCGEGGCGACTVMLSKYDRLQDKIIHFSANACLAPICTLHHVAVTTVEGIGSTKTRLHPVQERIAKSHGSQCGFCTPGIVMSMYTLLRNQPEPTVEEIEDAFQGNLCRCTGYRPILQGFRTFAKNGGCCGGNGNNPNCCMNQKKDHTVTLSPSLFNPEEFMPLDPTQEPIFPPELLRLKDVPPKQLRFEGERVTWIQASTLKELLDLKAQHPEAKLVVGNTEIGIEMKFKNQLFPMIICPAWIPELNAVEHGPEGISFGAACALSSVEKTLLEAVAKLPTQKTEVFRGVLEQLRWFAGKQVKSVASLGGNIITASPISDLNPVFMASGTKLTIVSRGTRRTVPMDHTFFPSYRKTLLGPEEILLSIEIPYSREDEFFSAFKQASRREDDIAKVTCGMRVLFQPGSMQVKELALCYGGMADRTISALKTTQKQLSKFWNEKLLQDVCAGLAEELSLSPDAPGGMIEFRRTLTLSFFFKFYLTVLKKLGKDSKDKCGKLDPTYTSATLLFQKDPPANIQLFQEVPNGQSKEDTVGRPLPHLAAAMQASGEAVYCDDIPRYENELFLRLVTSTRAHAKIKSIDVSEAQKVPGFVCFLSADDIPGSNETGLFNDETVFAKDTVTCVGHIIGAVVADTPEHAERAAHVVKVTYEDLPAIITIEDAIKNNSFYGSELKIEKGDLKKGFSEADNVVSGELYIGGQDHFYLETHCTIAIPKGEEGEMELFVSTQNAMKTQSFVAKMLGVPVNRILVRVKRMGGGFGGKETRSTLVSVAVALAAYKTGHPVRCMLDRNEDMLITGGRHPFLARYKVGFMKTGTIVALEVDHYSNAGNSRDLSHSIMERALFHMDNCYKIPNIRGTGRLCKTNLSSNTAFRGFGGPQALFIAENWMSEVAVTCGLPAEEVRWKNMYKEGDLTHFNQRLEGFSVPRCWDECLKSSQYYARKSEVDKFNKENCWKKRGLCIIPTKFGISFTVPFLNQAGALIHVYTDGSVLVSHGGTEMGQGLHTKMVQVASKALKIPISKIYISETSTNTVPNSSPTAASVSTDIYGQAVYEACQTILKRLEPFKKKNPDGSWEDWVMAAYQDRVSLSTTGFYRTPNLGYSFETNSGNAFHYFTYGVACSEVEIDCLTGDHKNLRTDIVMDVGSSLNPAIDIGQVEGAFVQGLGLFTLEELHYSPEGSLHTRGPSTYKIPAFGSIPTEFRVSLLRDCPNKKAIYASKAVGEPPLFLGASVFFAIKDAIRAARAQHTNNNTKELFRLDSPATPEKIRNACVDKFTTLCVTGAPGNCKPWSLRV

Chain of xanthine oxidase (XO) of cow's milk (from Wako Pure Chemical) (P80457 2-1332 limits assumed): as above

In the case of LDNY [peptide LDNY], in test [1], the “50% inhibitory concentration (IC50) of xanthine oxidase activity (uric acid produced from xanthine, OD at 292 nm)” value (from here on “50% inhibitory concentration (IC50)”) turned out to be 750 µM.

On to DN [peptide DN], for which, in test [1], the “50% inhibitory concentration (IC50)” value came out at 500 µM.

For the molecule YLDN [peptide YLDN], the “50% inhibitory concentration (IC50)” value in test [1] was determined as 1200 µM.

For YINY [polypeptide having SEQ ID No. 2 (YINY)], in test [2], the “50% inhibitory concentration (IC50)” value worked out at 3700 µM.

In the case of LD [peptide LD], the “50% inhibitory concentration (IC50)” value in test [1] turned out to be 1700 µM.
